Test results published in patent publication US20230322879A1.

Target: CC-chemokine receptor type 7 (CCR7) (UniProt P32248)
Test: cell-based or functional assay

Chain of UniProt P32248 (P32248 25-378 limits assumed): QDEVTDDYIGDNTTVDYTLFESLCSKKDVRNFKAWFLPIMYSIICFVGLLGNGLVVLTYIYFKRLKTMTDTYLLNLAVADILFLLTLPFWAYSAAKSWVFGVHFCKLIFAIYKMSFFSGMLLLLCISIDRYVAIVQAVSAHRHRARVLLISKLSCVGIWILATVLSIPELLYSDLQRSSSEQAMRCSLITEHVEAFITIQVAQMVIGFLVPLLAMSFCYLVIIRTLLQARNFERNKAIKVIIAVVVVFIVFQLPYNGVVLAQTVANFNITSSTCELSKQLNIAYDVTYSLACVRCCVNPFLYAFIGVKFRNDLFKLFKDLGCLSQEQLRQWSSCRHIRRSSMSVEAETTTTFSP

Cells in the well of absorbent material (chemotaxis of PBMCs, agarose assay): 170 cells | Chemotaxis percentage (PBMCs, agarose assay): 90% | Chemotaxis rate (PBMCs, agarose assay): 153 cells | cancer cell migration after 72 hours, wound healing assay: 90%
Substance: commercial CCL21 antigen (from UniProt O00585 24-134) (ligand)
survival of MCF7 cancer cells, MTT assay, 7.5 µg/ml: 33%
